In the supplement of paper PMC10065799, “High-throughput profiling of sequence recognition by tyrosine kinases and SH2 domains using bacterial peptide display” (eLife, 2023):

How the values were obtained:
Hck = Hck (UniProt P08631); assay: phosphorylation enrichment, bacterial display (enrichment ratio); higher = better substrate or ligand; peptides without Tyr show the background
EPHB2 = EPHB2 (UniProt P29323); assay: as above
Fer (mouse) = assay: as above
Fyn = Fyn (UniProt P06241); assay: as above
EPHB1 = EPHB1 (UniProt P54762); assay: as above
Fes = Fes (UniProt P07332); assay: as above
AncSZ = assay: as above
FGFR1 = FGFR1 (UniProt P11362); assay: as above
c-Abl (mouse) = assay: as above
FGFR3 = FGFR3 (UniProt P22607); assay: as above
Jak2 = Jak2 (UniProt O60674); assay: as above
c-Src = assay: as above
MERTK = MERTK (UniProt Q12866); assay: as above
c-Src SH2 = assay: SH2 binding enrichment of the phosphorylated peptide, bacterial display (enrichment ratio); higher = better substrate or ligand; peptides without Tyr show the background
SHP2-C SH2 = assay: as above
Grb2 SH2 = Grb2 SH2 (UniProt P62993); assay: as above
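For SH2 binding enrichment of the phosphorylated peptide, bacterial display in this document: peptide library displayed on the E. coli surface as eCPX fusions, selected cells deep-sequenced, score is each peptide's frequency after selection divided by its frequency in the input.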
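For phosphorylation enrichment, bacterial display in this document: 11-residue human phosphosite peptides and single-mutation variants displayed on the E. coli surface, counted by deep sequencing, each peptide's frequency after selection divided by its frequency in the unselected input library; frequency after pTyr selection over input frequency; kinase dosed for 20-30% of maximal phosphorylation in three min.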

Chain of Fyn (P06241 whole entry, looked up): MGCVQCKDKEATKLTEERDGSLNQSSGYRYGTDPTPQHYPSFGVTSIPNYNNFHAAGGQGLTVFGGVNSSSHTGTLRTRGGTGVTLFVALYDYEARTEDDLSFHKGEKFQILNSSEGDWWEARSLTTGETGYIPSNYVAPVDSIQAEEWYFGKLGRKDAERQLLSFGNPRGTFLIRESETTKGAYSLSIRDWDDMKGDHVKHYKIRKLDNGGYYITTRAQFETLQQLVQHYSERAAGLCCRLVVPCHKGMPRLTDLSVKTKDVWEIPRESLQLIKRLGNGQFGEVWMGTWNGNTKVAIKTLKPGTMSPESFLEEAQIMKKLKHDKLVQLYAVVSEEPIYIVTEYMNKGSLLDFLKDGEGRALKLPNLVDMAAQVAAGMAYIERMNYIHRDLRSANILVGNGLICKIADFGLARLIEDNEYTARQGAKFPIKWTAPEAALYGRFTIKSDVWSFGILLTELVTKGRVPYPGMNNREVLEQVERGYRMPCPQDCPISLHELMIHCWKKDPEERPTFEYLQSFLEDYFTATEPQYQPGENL
Chain of EPHB1 (P54762 whole entry, looked up): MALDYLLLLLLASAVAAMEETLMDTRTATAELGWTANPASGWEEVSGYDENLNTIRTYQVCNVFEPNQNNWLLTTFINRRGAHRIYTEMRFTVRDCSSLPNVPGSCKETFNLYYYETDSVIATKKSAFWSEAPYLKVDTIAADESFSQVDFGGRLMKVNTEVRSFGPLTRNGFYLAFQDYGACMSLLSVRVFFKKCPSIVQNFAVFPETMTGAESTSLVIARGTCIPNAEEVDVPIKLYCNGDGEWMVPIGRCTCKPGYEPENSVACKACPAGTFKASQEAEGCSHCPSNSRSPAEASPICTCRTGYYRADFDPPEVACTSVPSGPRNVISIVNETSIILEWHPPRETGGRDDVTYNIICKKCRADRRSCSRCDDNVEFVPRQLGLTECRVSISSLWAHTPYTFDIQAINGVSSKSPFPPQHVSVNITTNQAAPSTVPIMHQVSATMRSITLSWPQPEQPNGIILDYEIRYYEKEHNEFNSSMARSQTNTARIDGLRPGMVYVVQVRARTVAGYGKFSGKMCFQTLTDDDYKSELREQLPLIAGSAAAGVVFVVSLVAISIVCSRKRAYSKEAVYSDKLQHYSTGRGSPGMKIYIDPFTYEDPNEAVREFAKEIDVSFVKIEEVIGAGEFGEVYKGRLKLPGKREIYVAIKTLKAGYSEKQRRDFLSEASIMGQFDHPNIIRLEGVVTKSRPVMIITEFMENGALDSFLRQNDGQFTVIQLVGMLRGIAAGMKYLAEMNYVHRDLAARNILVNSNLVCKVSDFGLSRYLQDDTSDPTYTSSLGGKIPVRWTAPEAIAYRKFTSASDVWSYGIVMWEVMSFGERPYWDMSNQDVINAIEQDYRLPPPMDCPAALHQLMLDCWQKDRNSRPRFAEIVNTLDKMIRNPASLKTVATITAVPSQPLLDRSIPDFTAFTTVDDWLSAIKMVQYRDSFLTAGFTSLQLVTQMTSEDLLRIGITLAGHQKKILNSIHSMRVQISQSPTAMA
Chain of FGFR1 (P11362 whole entry, looked up): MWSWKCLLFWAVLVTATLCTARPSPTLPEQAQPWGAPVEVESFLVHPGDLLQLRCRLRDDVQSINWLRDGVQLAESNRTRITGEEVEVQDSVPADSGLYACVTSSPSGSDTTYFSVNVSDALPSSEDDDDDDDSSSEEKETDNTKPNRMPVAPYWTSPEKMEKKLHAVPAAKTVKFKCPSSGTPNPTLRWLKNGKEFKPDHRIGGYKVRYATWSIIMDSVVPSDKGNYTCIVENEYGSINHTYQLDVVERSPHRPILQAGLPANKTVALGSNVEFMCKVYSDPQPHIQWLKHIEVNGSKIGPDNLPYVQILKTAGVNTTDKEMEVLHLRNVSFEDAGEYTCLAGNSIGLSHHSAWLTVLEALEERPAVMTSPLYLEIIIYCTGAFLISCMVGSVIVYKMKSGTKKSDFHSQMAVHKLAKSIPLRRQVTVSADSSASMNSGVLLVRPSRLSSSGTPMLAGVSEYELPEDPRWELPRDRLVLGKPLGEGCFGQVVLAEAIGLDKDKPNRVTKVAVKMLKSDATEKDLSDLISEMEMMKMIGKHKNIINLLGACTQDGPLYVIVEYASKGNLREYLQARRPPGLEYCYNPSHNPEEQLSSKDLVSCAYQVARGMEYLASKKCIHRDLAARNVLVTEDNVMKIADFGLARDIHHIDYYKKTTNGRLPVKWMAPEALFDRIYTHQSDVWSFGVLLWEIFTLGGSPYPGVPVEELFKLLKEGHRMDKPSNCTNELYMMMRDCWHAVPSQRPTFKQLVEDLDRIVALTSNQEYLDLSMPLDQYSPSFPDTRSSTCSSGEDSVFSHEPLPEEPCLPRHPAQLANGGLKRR
Chain of Fes (P07332 whole entry, looked up): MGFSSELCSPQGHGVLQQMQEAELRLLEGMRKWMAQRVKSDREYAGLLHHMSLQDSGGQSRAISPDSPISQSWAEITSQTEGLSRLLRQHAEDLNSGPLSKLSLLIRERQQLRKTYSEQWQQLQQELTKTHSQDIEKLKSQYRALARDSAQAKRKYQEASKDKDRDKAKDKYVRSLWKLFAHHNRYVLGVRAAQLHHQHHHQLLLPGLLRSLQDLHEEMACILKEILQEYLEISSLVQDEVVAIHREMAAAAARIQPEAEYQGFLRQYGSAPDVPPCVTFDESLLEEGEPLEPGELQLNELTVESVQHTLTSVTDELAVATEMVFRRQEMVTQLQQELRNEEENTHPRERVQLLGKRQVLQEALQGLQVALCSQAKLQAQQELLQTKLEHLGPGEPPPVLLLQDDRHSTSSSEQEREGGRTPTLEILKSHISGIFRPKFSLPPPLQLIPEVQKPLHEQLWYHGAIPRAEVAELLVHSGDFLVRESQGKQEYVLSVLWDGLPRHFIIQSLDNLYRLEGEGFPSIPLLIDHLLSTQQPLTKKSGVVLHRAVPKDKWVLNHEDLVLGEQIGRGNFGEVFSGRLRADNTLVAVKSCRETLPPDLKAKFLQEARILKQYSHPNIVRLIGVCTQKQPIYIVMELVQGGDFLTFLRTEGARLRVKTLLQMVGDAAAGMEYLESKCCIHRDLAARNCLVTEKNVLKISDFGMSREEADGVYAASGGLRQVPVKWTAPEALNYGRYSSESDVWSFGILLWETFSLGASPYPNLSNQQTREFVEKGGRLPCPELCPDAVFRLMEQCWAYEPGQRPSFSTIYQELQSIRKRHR
Chain of MERTK (Q12866 whole entry, looked up): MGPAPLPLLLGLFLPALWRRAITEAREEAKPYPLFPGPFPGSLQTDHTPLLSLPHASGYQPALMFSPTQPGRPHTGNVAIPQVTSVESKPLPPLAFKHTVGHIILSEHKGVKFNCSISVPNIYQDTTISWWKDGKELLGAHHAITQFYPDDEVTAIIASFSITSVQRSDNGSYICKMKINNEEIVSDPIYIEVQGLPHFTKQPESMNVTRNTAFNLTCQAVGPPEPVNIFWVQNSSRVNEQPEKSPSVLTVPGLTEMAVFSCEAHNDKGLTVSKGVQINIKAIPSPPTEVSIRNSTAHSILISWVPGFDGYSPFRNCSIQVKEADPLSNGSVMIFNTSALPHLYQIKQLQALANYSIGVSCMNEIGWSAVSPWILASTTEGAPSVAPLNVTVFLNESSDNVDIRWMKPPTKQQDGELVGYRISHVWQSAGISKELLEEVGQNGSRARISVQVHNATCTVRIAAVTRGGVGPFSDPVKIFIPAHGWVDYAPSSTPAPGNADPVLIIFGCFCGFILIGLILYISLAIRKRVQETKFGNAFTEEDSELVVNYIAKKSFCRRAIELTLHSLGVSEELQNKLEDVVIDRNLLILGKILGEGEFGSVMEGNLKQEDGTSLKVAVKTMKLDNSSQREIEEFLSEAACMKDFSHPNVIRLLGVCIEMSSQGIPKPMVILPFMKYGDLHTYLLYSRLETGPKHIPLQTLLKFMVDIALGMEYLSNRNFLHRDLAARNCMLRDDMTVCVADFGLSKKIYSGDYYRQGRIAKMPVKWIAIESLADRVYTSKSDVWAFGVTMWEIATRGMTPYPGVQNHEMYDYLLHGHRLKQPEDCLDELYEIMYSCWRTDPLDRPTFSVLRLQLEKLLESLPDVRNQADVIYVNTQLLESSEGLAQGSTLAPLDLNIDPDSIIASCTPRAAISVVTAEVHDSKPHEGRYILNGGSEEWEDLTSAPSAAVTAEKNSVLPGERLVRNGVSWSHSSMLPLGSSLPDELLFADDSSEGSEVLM
Chain of FGFR3 (P22607 whole entry, looked up): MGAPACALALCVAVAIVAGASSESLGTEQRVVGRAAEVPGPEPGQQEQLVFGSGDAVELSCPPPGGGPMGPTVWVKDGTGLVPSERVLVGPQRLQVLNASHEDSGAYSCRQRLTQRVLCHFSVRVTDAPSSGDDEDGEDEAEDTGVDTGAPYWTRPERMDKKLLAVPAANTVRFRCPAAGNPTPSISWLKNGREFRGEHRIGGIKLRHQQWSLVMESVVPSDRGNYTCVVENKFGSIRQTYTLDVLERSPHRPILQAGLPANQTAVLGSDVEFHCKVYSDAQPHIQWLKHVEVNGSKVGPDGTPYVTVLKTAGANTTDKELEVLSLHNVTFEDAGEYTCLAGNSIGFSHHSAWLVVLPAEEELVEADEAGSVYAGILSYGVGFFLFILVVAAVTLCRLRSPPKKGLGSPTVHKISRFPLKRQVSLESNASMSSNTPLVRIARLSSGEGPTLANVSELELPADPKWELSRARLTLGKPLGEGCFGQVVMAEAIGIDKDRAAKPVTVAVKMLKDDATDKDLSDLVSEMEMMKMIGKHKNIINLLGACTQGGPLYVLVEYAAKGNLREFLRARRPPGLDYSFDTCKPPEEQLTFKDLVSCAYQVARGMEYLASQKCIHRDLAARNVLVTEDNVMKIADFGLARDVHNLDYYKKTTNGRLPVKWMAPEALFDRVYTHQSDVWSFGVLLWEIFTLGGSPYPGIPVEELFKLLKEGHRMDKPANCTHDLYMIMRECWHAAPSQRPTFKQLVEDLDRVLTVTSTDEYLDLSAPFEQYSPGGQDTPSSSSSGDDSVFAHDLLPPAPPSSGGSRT

Row | Sequence | phosphorylation enrichment (Hck) | phosphorylation enrichment (EPHB2) | phosphorylation enrichment (Fer (mouse)) | phosphorylation enrichment (Fyn) | phosphorylation enrichment (EPHB1) | phosphorylation enrichment (Fes) | phosphorylation enrichment (AncSZ) | phosphorylation enrichment (FGFR1) | phosphorylation enrichment (c-Abl (mouse)) | phosphorylation enrichment (FGFR3) | phosphorylation enrichment (Jak2) | phosphorylation enrichment (c-Src) | phosphorylation enrichment (MERTK) | SH2 binding enrichment (c-Src SH2) | SH2 binding enrichment (SHP2-C SH2) | SH2 binding enrichment (Grb2 SH2)
1 | ANKNVYEVEPT [MEGF10_Y1075_R1072K] | 0.798 | 0.492 | 0.36 | 4.42 | 0.516 | 0.938 | 0.823 | 0.383 | 0.6 | 0.7 | 0.848 | 2.9 | 1.04 | 1.59 | 0.941 | 0.821
2 | APGNAYGDAGY [SYP_Y250_D248N] | 0.474 | 0.451 | 0.452 | 0.418 | 0.515 | 0.77 | 0.731 | 0.428 | 0.607 | 0.512 | 0.851 | 0.497 | 0.423 | 0.441 | 0.52 | 0.681
3 | APRKVYDTQDD [ZFPL1_Y215_R218Q] | 0.586 | 0.685 | 0.67 | 0.495 | 0.692 | 1.09 | 0.993 | 0.549 | 0.766 | 0.653 | 0.808 | 0.479 | 0.466 | 0.501 | 0.671 | 0.716
4 | AQVDTYCRHNF [HLA-DRB1_Y107_A103Q_YF] | 0.446 | 0.479 | 0.628 | 0.433 | 0.369 | 0.959 | 0.676 | 0.668 | 0.59 | 0.472 | 0.673 | 0.434 | 0.528 | 0.621 | 0.834 | 1.06
5 | ARLDEYIAIAK [RCOR3_Y46_K42R] | 0.447 | 0.51 | 0.428 | 0.391 | 0.442 | 0.621 | 0.649 | 0.446 | 0.516 | 0.562 | 0.683 | 0.458 | 0.598 | 0.505 | 0.702 | 0.664
6 | ASENVYVNIAH [CTSC_Y150] | 1.94 | 0.924 | 3.79 | 1.99 | 1.92 | 0.827 | 0.881 | 3.4 | 0.8 | 2.05 | 0.986 | 2.21 | 0.826 | 2.4 | 5.86 | 6.93
7 | ASRKFYAMKIL [AKT3_Y174_G171R_YF] | 0.417 | 0.428 | 0.362 | 0.45 | 0.459 | 0.617 | 0.725 | 0.578 | 0.441 | 0.518 | 0.7 | 0.464 | 0.441 | 0.543 | 0.679 | 0.817
8 | ASTDFNKRGDF [PDHA1_Y243_Y243N_YF] | 0.462 | 0.341 | 0.347 | 0.365 | 0.297 | 0.585 | 0.511 | 0.373 | 0.521 | 0.378 | 0.53 | 0.44 | 0.418 | 0.612 | 0.706 | 0.705
9 | ATFRGYDSDNP [MMUT_Y146_H143Y_YF] | 0.528 | 0.513 | 0.553 | 0.51 | 0.424 | 0.896 | 0.904 | 0.571 | 0.666 | 0.531 | 0.811 | 0.425 | 0.373 | 0.572 | 0.718 | 1.01
10 | ATHSGYRLNDF [CLDN14_Y233_YF] | 0.391 | 0.514 | 0.361 | 0.419 | 0.472 | 0.601 | 0.587 | 0.322 | 0.906 | 0.538 | 0.558 | 0.453 | 0.42 | 0.421 | 0.542 | 1.04
11 | ATYRGYDSDNP [MMUT_Y146_H143Y] | 0.444 | 0.431 | 0.409 | 0.528 | 0.427 | 0.751 | 0.742 | 0.453 | 0.476 | 0.543 | 0.658 | 0.626 | 0.365 | 0.526 | 0.562 | 0.862
12 | AVEDQYYRVDC [FHL1_Y207_C209R] | 0.908 | 0.701 | 0.718 | 0.982 | 0.831 | 1.46 | 3.59 | 8.7 | 0.844 | 6.95 | 1.87 | 1.6 | 0.622 | 0.724 | 0.92 | 0.949
13 | CEAMEYQESKQ [BTK_Y511_L512Q] | 0.705 | 0.557 | 0.609 | 0.63 | 0.76 | 1.48 | 1.57 | 0.723 | 0.765 | 1.08 | 1.19 | 0.629 | 0.589 | 0.437 | 0.557 | 0.843
14 | CEDGNYSPEIS [PTDSS1_Y424_T423N] | 0.668 | 0.871 | 0.461 | 0.458 | 0.612 | 1.06 | 1.18 | 0.643 | 0.785 | 0.637 | 0.975 | 0.618 | 0.486 | 0.747 | 0.761 | 1.01
15 | CEETFYTMKVN [MASP2_Y401] | 0.756 | 0.625 | 0.738 | 1.04 | 0.766 | 1.4 | 1.48 | 0.546 | 0.9 | 0.935 | 1.51 | 1.41 | 0.529 | 0.522 | 0.788 | 0.842
16 | CENNRYGMGTS [PDHA1_Y227] | 0.555 | 0.606 | 0.538 | 0.518 | 0.686 | 1.36 | 0.991 | 0.548 | 0.715 | 0.726 | 0.999 | 0.517 | 0.397 | 0.44 | 0.6 | 0.77
